The values below are quoted from earlier work in article PMC6258485.

The target in the series is CD55 (Homo sapiens) (UniProt P08174).
Chain of UniProt P08174 (P08174 35-353): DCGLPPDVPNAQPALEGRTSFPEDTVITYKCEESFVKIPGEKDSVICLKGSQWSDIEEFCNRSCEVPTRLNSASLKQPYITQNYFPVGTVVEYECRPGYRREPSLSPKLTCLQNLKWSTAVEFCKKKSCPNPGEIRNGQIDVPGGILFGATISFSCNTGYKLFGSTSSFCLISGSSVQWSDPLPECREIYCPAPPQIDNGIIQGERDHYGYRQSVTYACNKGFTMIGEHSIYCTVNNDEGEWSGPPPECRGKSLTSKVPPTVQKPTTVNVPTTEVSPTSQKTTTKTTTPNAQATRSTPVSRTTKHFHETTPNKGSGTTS

With CD97 (from UniProt P48960), the Kd is 86 µM.

By Kd is commonly meant the constant that tells how readily two partners part at equilibrium.
